Marks after values point to notes of the source that are not given here.
Columns and labels:
[1] = tested on: mice; assay: Forced swimming test (FST), anti-anxiety and stress effects; assay type: in vivo
Description: The anti-anxiety and stress effects of the Ziptamin product were investigated in mice using the forced swim test as reported in Porsolt, et al. (5). Healthy female mice, after acclimatization, were randomly divided into 4 groups, each group consisting of 6 mice, specifically: • Group 1 (Disease control): Mice were administered distilled water; • Group 2 (Control): Mice were administered fluoxetine at a dose of 6.5 mg/kg; • Group 3 (Test sample): Mice were administered Ziptamin at a dose of 25 ml/kg, divided into 2 doses/day 4 hours apart; • Group 4 (Test sample): Mice were administered Ziptamin at a dose of 50 ml/kg, divided into 2 doses/day 4 hours apart.
Mice were administered distilled water or fluoxetine at a volume of 10 ml/kg once a day or Ziptamin at doses of 25 ml/kg and 50 ml/kg for 7 consecutive days, divided into 2 doses/day, with a 4-hour interval between doses. On day 7, 60 minutes after administering distilled water, fluoxetine, or Ziptamin, mice were placed in a cylindrical glass tube (diameter 20 cm, height 50 cm) containing water at a temperature of 23-25° C. and a depth of 20 cm for 6 minutes. Initially, the mice struggled to escape the water, but then gradually adapted and performed only the necessary movements to keep their heads above water (immobility state). Filming lasted for 6 minutes, including 1 minute for the mice to stabilize and adapt, and the remaining 5 minutes to record the movements and behavior of the mice in the water, including swimming time (mice moving their limbs in the water as if rowing in the center of the cylinder), struggling (front limbs moving quickly and strongly in or above the water, with a tendency to swim and hit the front limbs against the walls of the cylinder), and immobility (ceasing to struggle, only performing necessary movements to keep the head afloat) (FIG. 1). The test sample reduced anxiety and stress, decreasing immobility time and increasing swimming and struggling time in the test mice. After 6 minutes, the mice were removed from the water and dried to prevent hypothermia. Results are presented as mean values±SEM (standard error of the mean). Differences between groups were analyzed using the Kruskal-Wallis test and Mann-Whitney test with SPSS 26.0 software. A statistical significance is considered when the p-value is <0.05.

[2] = tested on: mice with immunosuppression induced by cyclophosphamide; assay: Immune stimulatory effects on mice with immunosuppression induced by cyclophosphamide; assay type: in vivo; settings: for Body weight: CYP 150 mg/kg i.p. day 1
Description: The adult human dosage of Ziptamin is 0.5-1 bottle/day×250 ml/bottle A normal adult weighs about 60 kg→Mouse dose of Ziptamin: Dmouse=(0.5*250*11.76)/60=25 ml/kg and Dmouse=(1*250*11.76)/60=50 ml/kg. The dose conversion factor from adults to mice is 11.76 according to the Guidelines for preclinical and clinical testing of traditional medicine, herbal medicine issued by the Department of Science, Technology and Training-Ministry of Health under Decision No. 141/QD-K2DT dated 27 Oct. 2015.
Healthy male mice, after stable housing, were randomly divided into 5 groups, each with 8 mice: • Group 1 (Physiological): Mice were given distilled water; • Group 2 (Disease control): Mice were given distilled water; • Group 3 (Control): Mice were injected […] with filgrastim at a dose of 50 μg/kg; • Group 4 (Test group): Mice were given Ziptamin at a dose of 25 ml/kg, divided into 2 doses/day 4 hours apart; • Group 5 (Test group): Mice were given Ziptamin at a dose of 50 ml/kg, divided into 2 doses/day 4 hours apart; • Group 1 (physiological) were injected intraperitoneally with 0.9% NaCl, volume 10 ml/kg. Mice from groups 2 to 5 were injected intraperitoneally with CYP (dissolved in 0.9% NaCl) at a single dose of 150 mg/kg on day 1, injection volume 10 ml/kg. Mice in group 3 were subcutaneously injected with filgrastim (dissolved in 5% glucose), dose 50 μg/kg, once a day, from day 2 to day 4, the first dose 24 hours after CYP injection. Mice in groups 4 and 5 were given Ziptamin at doses of 25 ml/kg and 50 ml/kg from day 1 to day 4, divided into 2 doses/day, 4 hours apart between doses. Mice in the test groups were recorded for weight daily before administering distilled water, test sample, or medication. On day 4, one hour after the filgrastim injection or Ziptamin administration, mice were euthanized with CO2 gas, blood was collected from the heart to determine the leukocyte formula at Medlatec clinic; spleen and thymus were collected, rinsed with cold 0.9% NaCl, dried, weighed, and the relative organ mass was determined using the formula:
[formula] • Where: • Porgan: organ weight (g) • Pbody: body weight (g)
Results are presented as mean±SEM (standard error of mean). Differences between groups were analyzed using Kruskal-Wallis and Mann-Whitney tests with SPSS 26.0 software. A difference was considered statistically significant when the p-value <0.05.

[3] = fluoxetine 6.5 mg/kg once a day, 7 days, female mice, n = 6, 5 minutes recorded
[4] = filgrastim 50 μg/kg day 2 to day 4, CYP 150 mg/kg, blood day 4, n = 8
[5] = filgrastim 50 μg/kg day 2 to day 4, CYP 150 mg/kg, day 4, n = 8

In the case of `CNCCC(Oc1ccc(C(F)(F)F)cc1)c1ccccc1` (stereo not drawn) [Fluoxetin, fluoxetine], the “Time Immobility” value [1, 3] is reported as 53.17 ± 29.27 s, the “Time Struggling” value [1, 3] is reported as 15.33 ± 8.52 s and the “Time Swimming” value [1, 3] is reported as 231.50 ± 28.25 s. For the same molecule, the “decrease in immobility time compared to the disease control group” value ([1]; fluoxetine 6.5 mg/kg, p<0.01) was 68.66%, the “increase in swimming time compared to the disease control group” value ([1]; fluoxetine 6.5 mg/kg, p<0.01) was 90.27% and the “paddling time relative to the disease control group” value ([1]; fluoxetine 6.5 mg/kg, p>0.05) was 1.77 times.

B1: filgrastim (protein, UniProt P09919 31-207, looked up)
Granulocyte …: TPLGPASSLPQSFLLKCLEQVRKIQGDGAALQEKLVSECATYKLCHPEELVLLGHSLGIPWAPLSSCPSQALQLAGCLSQLHSGLFLYQGLLQALEGISPELGPTLDTLQLDVADFATTIWQQMEELGMAPALQPTQGAMPAFASAFQRRAGGVLVASHLQSFLEVSYRVLRHLAQP
modifications: filgrastim
In the case of B1, the Body weight ([2]; Day 1, filgrastim 50 μg/kg group, n = 8) is reported as 19.34 ± 0.97 g, the Body weight ([2]; Day 2, filgrastim 50 μg/kg once a day from day 2, n = 8) is reported as 18.19 ± 1.21 g and the Body weight ([2]; Day 3, filgrastim 50 μg/kg once a day from day 2, n = 8) is reported as 17.64 ± 1.41 g. For the same molecule, the Body weight ([2]; Day 4, filgrastim 50 μg/kg once a day from day 2, n = 8) was 17.08 ± 1.52 g, the “Ratio WBCC Lympho” value [2, 4] was 87.26 ± 4.57 % and the “Ratio WBCC Mono” value [2, 4] was 7.00 ± 1.91 %. For the same molecule, the “Ratio WBCC Neutral” value [2, 4] was 5.74 ± 2.84 %, the “Volume WBC Lympho” value [2, 4] was 2.26 ± 0.60**^# 10^9/L and the “Volume WBC Mono” value [2, 4] was 0.15 ± 0.10**^# 10^9/L. The “Volume WBC Neutral” value [2, 4] was 0.25 ± 0.13** 10^9/L, the “Volume WBC Total WBC” value [2, 4] was 2.66 ± 0.73**^# 10^9/L and the “Relative weight of the spleen” value [2, 5] was 0.16 ± 0.05 % g/g. The “Relative weight of the thymus” value [2, 5] was 0.06 ± 0.03 % g/g, the “total white blood cell count, lymphocyte count, monocyte count, proportion of neutrophils and lymphocytes compared to the disease control group” value ([2]; filgrastim 50 μg/kg subcutaneously, p<0.05) was “increase” and the “weight of the thymus compared to the disease control group” value ([2]; filgrastim 50 μg/kg, end of the experiment) was “remained unchanged”.
